Laboratory results from publication PMC2671235 (Biochemistry, 2009).
Each block holds one binder with its values, some of them ahead of it. Ends that are not written are not given here.

B1: Annexin I peptide (peptide)
peptide: Ac-AMVSEFLKQAWFIE
B2: S100A11 (natural protein, human, UniProt P31949 1-105, looked up)
chain: MAKISSPTETERCIESLIAVFQKYAGKDGYNYTLSKTEFLSFMNTELAAFTKNQKDPGVLDRMMKKLDTNSDGQLDFSEFLNLIGGLAMACHDSFLKAVPSQKRT

Experiments:
S100A10 = S100A10 (human, UniProt P60903 1-97); assay: ITC
S100A11 [1] = target: B2; assay: ITC
S100A11 [2] = target: B2; assay: other fluorescence titration
S100A6 [3] = target: T1, S100A6 (human, UniProt P06703 1-90); assay: other fluorescence titration
S100A11 [4] = target: B2; assay: ITC; remark: listed apart in the source
S100A6 [5] = target: T1, S100A6; assay: ITC
Annexin I peptide = target: B1; assay: ITC

Chain of S100A10 (P60903 whole entry): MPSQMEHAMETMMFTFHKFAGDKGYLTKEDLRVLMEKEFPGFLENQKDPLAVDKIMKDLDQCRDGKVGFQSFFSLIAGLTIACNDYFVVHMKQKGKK

stoichiometry N (S100A10): 2 binding sites per dimer | stoichiometry N (S100A11 [1]): 2 binding sites per dimer
Binder: Ac-STVHEILSKLSLEGY [Annexin II peptide]

Binder: B1
Kd (S100A11 [2]): 5 ± 1 µM | Kd (S100A6 [3]): 17 ± 4 µM | Kd (S100A11 [4]): 5 ± 2 µM | Kd (S100A6 [5]): 13 ± 4 µM

Binder: B2
dH at 15°C (Annexin I peptide): -0.956 kcal/mol | dH at 35°C (Annexin I peptide): -7.17 kcal/mol | stoichiometry N (Annexin I peptide): 2 binding sites per dimer
